According to PMC5966398, “Conserved RNA binding activity of a Yin-Yang 1 homologue in the ova of the purple sea urchin Strongylocentrotus purpuratus”:

B1: YY1 consensus DNA element (YY1C) (dsDNA)
DNA 1: CTAGGCGCTCCCCGGCCATCTTGGCGGCTGGT
DNA 2: ACCAGCCGCCAAGATGGCCGGGGAGCGCCTAG
B2: U(20) RNA (ssRNA)
RNA: UUUUUUUUUUUUUUUUUUUU

Molecular target: SpYY1 (recombinant) (Strongylocentrotus purpuratus, UniProt A0A7M7RHL1 1-400)
Assay: EMSA; 250 nM protein, 10 nM probe; 50 mM NaCl, 50 mM Tris-HCl pH 7.5, 2 mM MgCl2, 1 mM DTT, 5% glycerol, room temperature 20 min; 10 nM probe; recombinant protein 0.5 uM (Methods) or 250 nM (Fig. 4 legend); lysate reactions with poly-dIdC (DNA) or yeast tRNA (RNA)
Settings: tags: His tag and EK site from pRSetB (text says C-terminal)

Sequence of SpYY1 (recombinant) (A0A7M7RHL1 entry or part of it): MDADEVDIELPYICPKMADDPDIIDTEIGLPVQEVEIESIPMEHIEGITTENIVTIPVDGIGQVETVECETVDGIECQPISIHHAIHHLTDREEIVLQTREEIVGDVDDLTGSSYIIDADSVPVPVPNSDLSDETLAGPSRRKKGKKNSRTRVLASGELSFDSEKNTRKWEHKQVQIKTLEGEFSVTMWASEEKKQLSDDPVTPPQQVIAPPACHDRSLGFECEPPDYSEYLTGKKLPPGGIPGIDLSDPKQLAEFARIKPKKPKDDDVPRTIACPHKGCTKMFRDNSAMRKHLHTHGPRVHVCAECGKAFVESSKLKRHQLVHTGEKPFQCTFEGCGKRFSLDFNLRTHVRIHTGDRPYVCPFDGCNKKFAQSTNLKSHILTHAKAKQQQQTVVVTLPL

Row | Binder | binding result (label: 32P end-fill when probe) | binding result (label: 5'-32P when probe, single strand)
1 | B1 | binds | –
2 | B2 | – | binds
